The assay concerns the target Recombinant human LY6K protein (LY6K-Wt) (human) (UniProt Q17RY6). Description: SPR; LY6K immobilised on a CM5 chip by amine coupling (~6200–7000 RU); TbR1 injected at various concentrations, 50 μL/min; Biacore T200, 25 °C; running buffer PBS-P + 5% DMSO; 1:1 kinetics binding model. On the technique in general: Surface plasmon resonance follows binding to a sensor surface in real time, without labels.

B1: Recombinant human TbR1 protein (receptor)
chain: LQCFCHLCTKDNFTCVTDGLCFVSVTETTDKVIHNSMCIAEIDLIPRDRPFVCAPSSKTGSVTTTYCCNQDHCNKIELPTTVKSSPGLGPVEL
Broadly, the Kd is the constant that tells how readily two partners part at equilibrium. Usually koff stands for the rate constant with which the complex falls apart. A word on the kon: it is the rate constant with which the complex forms. With B1, the dissociation constant (Kd) was 9.2 nM, the koff was 0.000468 s⁻¹ and the kon was 51000 M⁻¹ s⁻¹.

These data come from PMC10454365.
